Results published in patent US20120184016A1, “NOVEL PROTEIN AND GENE THAT CODES THEREFOR” (priority 2009, published 2012).

Columns and labels:
[1] = Enzyme activity of the sample after each purification step; format: biochemical
Description: The sialyltransferase activity may be measured by a known method, for example, the process described in J. Biochem., 120, 104-110 (1996) (which is hereby incorporated by reference in its entirety). For example, the enzyme activity can be evaluated by performing an enzyme reaction using CMP-NeuAc (N-acetylneuraminic acid) as a sugar donor substrate and lactose as a sugar acceptor substrate and evaluating the amount of the reaction product, i.e., sialyllactose. Note that one enzyme unit (1 U) of sialyltransferase is defined as the amount of the enzyme required to transfer one micromole of sialic acid per minute.
Sialyltransferase activity was measured by a method described in J. Biochem., 120, 104-110 (1996) (which is hereby incorporated by reference in its entirety). Specifically, the enzyme reaction was performed using a reaction solution (30 μL) containing CMP-NeuAc (70 nmol, containing about 20000 cpm CMP-NeuAc in which NeuAc was labeled with ^14C; NeuAc represents N-acetylneuraminic acid) as a sugar donor substrate, lactose (1.25 μmol) as a sugar acceptor substrate, NaCl added to give a concentration of 0.5 M, and the enzyme prepared as described above. The enzyme reaction was carried out at 25° C. for about 10 to 180 minutes. After completion of the reaction, 1.97 mL of 5 mM phosphate buffer (pH 6.8) was added to the reaction solution, which was then applied to a Dowex 1×8 (PO4^3− form, 0.2×2 cm, manufactured by Bio-Rad Laboratories, Inc.) column. The radioactivity contained in the reaction product contained in the eluate (0 to 2 mL) from this column, that is, sialyllactose, was measured to calculate the enzyme activity. One enzyme unit (1 U) is defined as the amount of enzyme required to transfer one micromole of sialic acid per minute.
The enzyme activity was measured by the method described in J. Biochem., 120, 104-110 (1996), as in Example 1. The amount of the protein was measured using a Coomassie Protein Assay Reagent (manufactured by Pierce) in accordance with the instruction manual attached thereto. One enzyme unit (1 U) was defined as the amount of enzyme required to transfer one micromole of sialic acid per minute.

[2] = Optimum pH and optimum temperature for neuraminidase activity; format: biochemical; conditions: purified enzyme
Procedure: The optimum pH and the optimum temperature for neuraminidase activity of the recombinant β-galactoside-α2,6-sialyltransferase SHIZ119-N1C0 derived from the JT-SHIZ-119 strain were investigated using the purified enzyme prepared in Example 3.
The enzyme activity at various pH levels was measured at 35° C. with the buffer used in Example 4.
The neuraminidase activity was measured at every increment of 5° C. starting from 5° C. up to 50° C. using cacodylate buffer (pH 6.0).

B1: SHIZ119-N1C0 (protein)
chain: MCNDNQNTVDVVVSTVNDNVIENNTYQVKPIDTPTTFDSYSWIQTCGTPILKDDEKYSLSFDFVAPELDQDEKFCFEFTGDVDGKRYVTQTNLTVVAPTLEVYVDHASLPSLQQLMKIIQQKNEYSQNERFISWGRIGLTEDNAEKLNAHIYPLAGNNTSQELVDAVIDYADSKNRLNLELNTNTAHSFPNLAPILRIISSKSNILISNINLYDDGSAEYVNLYNWKDTEDKSVKLSDSFLVLKDYFNGISSEKPSGIYGRYNWHQLYNTSYYFLRKDYLTVEPQLHDLREYLGGSLKQMSWDGFSQLSKGDKELFLNIVGFDQEKLQQEYQQSELPNFVFTGTTTWAGGETKEYYAQQQVNVVNNAINETSPYYLGREHDLFFKGHPRGGIINDIILGSFNNMIDIPAKVSFEVLMMTGMLPDTVGGIASSLYFSIPAEKVSFIVFTSSDTITDREDALKSPLVQVMMTLGIVKEKDVLFWSDLPDCSSGVCIAQY
modifications: beta-galacoside-alpha-2,6-sialyltransferase from phorobacterium leiognathi (without signal peptide)
Specific activity ([1]; sample: Crude enzyme solution): 5.5 U/mg
Specific activity ([1]; sample: HAP): 82.9 U/mg
Specific activity ([1]; sample: Mono-Q): 36.2 U/mg
Specific activity ([1]; sample: Q-sepharose): 35.6 U/mg
pH at which neuraminidase activity is the highest (optimum pH) ([2]; 35° C., FIG. 4-1): 6.0
temperature at which neuraminidase activity is the highest (optimum temperature) ([2]; cacodylate buffer (pH 6.0), 5° C. up to 50° C., FIG. 4-2): 35 °C
